Earlier results on 1 substance are cited in paper PMC2994893.

The data set addresses Lck phospho-Tyr505 motif pTyr505 motif (Homo sapiens) (UniProt P06239).

With Lck SH2 (from UniProt P06239), the Kd was 300 nM.
